# Measurements reported in patent US20160009789A1 (US Dept. of Health and Human Services, published 2016).
# Assays:
# full-length YU2 gp120 [1] = target: T1, full-length YU2 gp120 (HIV-1 strain YU2, UniProt P35961 32-498); test: SPR (Biacore)
# T1 construct: domain: full-length gp120; also called wild-type gp120
# full-length YU2 gp120 [2] = target: T1, full-length YU2 gp120; test: SPR (Biacore), 1:1 Langmuir fit
binder,measurement,setting,value
"VRC03 (antibody, V domains shown, also called mAb VRC03) VH: QVQLVQSGAVIKTPGSSVKISCRASGYNFRDYSIHWVRLIPDKGFEWIGWIKPLWGAVSYARQLQGRVSMTRQLSQDPDDPDWGVAYMEFSGLTPADTAEYFCVRRGSCDYCGDFPWQYWGQGTVVVVSS VL: EIVLTQSPGILSLSPGETATLFCKASQGGNAMTWYQKRRGQVPRLLIYDTSRRASGVPDRFVGSGSGTDFFLTINKLDREDFAVYYCQQFEFFGLGSELEVH",fold lower affinity than VRC01 and VRC02,full-length YU2 gp120 [1],~10 fold
same,Kd,full-length YU2 gp120 [2],73.1 nM
